The text below walks through data of paper PMC11054894, “Sortase-Modified Cholera Toxoids Show Specific Golgi Localization” (Toxins, 2024).

Experiment in all cases: SDS-PAGE without boiling
The target in series [1] is FITC-labeled cholera toxin B (sortase-labeled GGG-CTB) (UniProt P01556).
The target in series [2] is cholera toxin B with an N-terminal triglycine extension (UniProt P01556).
The series “SDS-PAGE without boiling” concerns the molecule itself.

For “FITC-labeled cholera toxin B (sortase-labeled GGG-CTB) (from UniProt P01556 22-124) (natural protein)”, in series [1], the stoichiometry N (commonly a count of units in the complex or per binding partner) came to 5.

Turning to “cholera toxin B with an N-terminal triglycine extension (from UniProt P01556 22-124) (natural protein)”, the stoichiometry N in series [2] was 5.

B1: cholera toxin B-subunit (natural protein)
chain: TPQNITDLCAEYHNTQIYTLNDKIFSYTESLAGKREMAIITFKNGAIFQVEVPGSQHIDSQKKAIERMKDTLRIAYLTEAKVEKLCVWNNKTPHAIAAISMAN
notes: also called B5; B5 pentamer
Take B1: the “stoichiometry N” value in “SDS-PAGE without boiling” is 5.
